Our source for the protein stability index values is the supplement of paper PMC10567573.

First the molecules themselves.
B1: ATL3 (parent)
chain: HFKKTKKMGGKDFSFRYQQELEEE
B2: ZNF24 (parent)
chain: YGETCFPKGRFERKRNPSRKKQHI
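Also: lentivirally expressed fusions sorted by FACS into six bins by GFP to DsRed ratio, PSI derived from sequencing read proportions per bin multiplied by bin number.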

The first data set covers variants of B1. Briefly: protein stability index of a GFP-peptide fusion (GPS, HEK-293T) (PSI 1-6); higher = more stable. The settings on record: c terminus: a fixed tail appended.
For the variant HFKKTKKMGGKDFSFRYQQELHEE, the protein stability index was 2.83.

As to HFKKTKKMGGKDFSFRYQQELVEE, the protein stability index came to 2.41.

On to HFKKTKKMGGKDFSFRYQQELYEE, for which the protein stability index amounted to 2.15.

In the case of HFKKTKKMGGKDFSFRYQQELWEE, the protein stability index amounted to 1.3.

In the case of HFKKTKKMGGKDFSFRYQQELQEE, the protein stability index was 1.59.

For HFKKTKKMGGKDFSFRYQQELTEE, the protein stability index stood at 2.03.

Turning to HFKKTKKMGGKDFSFRYQQELNEE, the protein stability index came out at 1.72.

In the case of HFKKTKKMGGKDFSFRYQQELGEE, the protein stability index was determined as 2.5.

HFKKTKKMGGKDFSFRYQQELSEE: the protein stability index was determined as 1.8.

Take HFKKTKKMGGKDFSFRYQQELCEE: the protein stability index was 3.15.

Regarding HFKKTKKMGGKDFSFRYQQELKEE, the protein stability index is 3.18.

As to HFKKTKKMGGKDFSFRYQQELIEE, the protein stability index was found to be 1.79.

With HFKKTKKMGGKDFSFRYQQELLEE, the protein stability index stood at 1.99.

In the case of HFKKTKKMGGKDFSFRYQQELPEE, the protein stability index amounted to 3.31.

As for HFKKTKKMGGKDFSFRYQQELFEE, the protein stability index is 1.85.

For the variant HFKKTKKMGGKDFSFRYQQELMEE, the protein stability index was found to be 1.8.

On to HFKKTKKMGGKDFSFRYQQELDEE, for which the protein stability index amounted to 2.2.

Regarding HFKKTKKMGGKDFSFRYQQEYEEE, the protein stability index was 1.4.

For HFKKTKKMGGKDFSFRYQQEPEEE, the protein stability index amounted to 4.57.

In the case of HFKKTKKMGGKDFSFRYQQEREEE, the protein stability index came out at 2.46.

For the variant HFKKTKKMGGKDFSFRYQQEMEEE, the protein stability index worked out at 1.53.

Turning to HFKKTKKMGGKDFSFRYQQEQEEE, the protein stability index was 2.4.

Regarding HFKKTKKMGGKDFSFRYQQESEEE, the protein stability index was determined as 4.

For HFKKTKKMGGKDFSFRYQQENEEE, the protein stability index was found to be 4.27.

As for HFKKTKKMGGKDFSFRYQQEVEEE, the protein stability index is 2.72.

Turning to HFKKTKKMGGKDFSFRYQQETEEE, the protein stability index worked out at 4.24.

In the case of HFKKTKKMGGKDFSFRYQQELELE, the protein stability index is 2.22.

Consider HFKKTKKMGGKDFSFRYQQELEHE, for which the protein stability index stood at 2.02.

Regarding HFKKTKKMGGKDFSFRYQQELECE, the protein stability index turned out to be 3.01.

Turning to HFKKTKKMGGKDFSFRYQQELESE, the protein stability index stood at 2.2.

As for HFKKTKKMGGKDFSFRYQQELEVE, the protein stability index amounted to 2.27.

Turning to HFKKTKKMGGKDFSFRYQQELEFE, the protein stability index is 2.27.

For HFKKTKKMGGKDFSFRYQQELEYE, the protein stability index amounted to 1.71.

Turning to HFKKTKKMGGKDFSFRYQQELEIE, the protein stability index came to 1.97.

Consider HFKKTKKMGGKDFSFRYQQELENE, for which the protein stability index came to 2.67.

As for HFKKTKKMGGKDFSFRYQQELETE, the protein stability index turned out to be 2.55.

For the variant HFKKTKKMGGKDFSFRYQQELEPE, the protein stability index was determined as 4.12.

Turning to HFKKTKKMGGKDFSFRYQQELEGE, the protein stability index worked out at 1.88.

Turning to HFKKTKKMGGKDFSFRYQQELEQE, the protein stability index amounted to 1.81.

Turning to HFKKTKKMGGKDFSFRYQQELEDE, the protein stability index is 2.42.

As for HFKKTKKMGGKDFSFRYQQELEAE, the protein stability index was 2.2.

For HFKKTKKMGGKDFSFRYQQELEME, the protein stability index amounted to 2.61.

Turning to HFKKTKKMGGKDFSFRYQQELEKE, the protein stability index stood at 2.46.

Take HFKKTKKMGGKDFSFRYQQELEEH: the protein stability index was 3.13.

As for HFKKTKKMGGKDFSFRYQQELEEG, the protein stability index turned out to be 2.63.

For HFKKTKKMGGKDFSFRYQQELEEA, the protein stability index is 2.68.

In the case of HFKKTKKMGGKDFSFRYQQELEEM, the protein stability index was found to be 1.81.

Consider HFKKTKKMGGKDFSFRYQQELEEN, for which the protein stability index was found to be 3.49.

HFKKTKKMGGKDFSFRYQQELEER: the protein stability index came out at 3.35.

As to HFKKTKKMGGKDFSFRYQQELEEF, the protein stability index was determined as 2.01.

HFKKTKKMGGKDFSFRYQQELEEP: the protein stability index came to 3.69.

As for HFKKTKKMGGKDFSFRYQQELEET, the protein stability index is 2.39.

HFKKTKKMGGKDFSFRYQQELEEC: the protein stability index came to 2.74.

Consider HFKKTKKMGGKDFSFRYQQELEEY, for which the protein stability index was determined as 1.54.

For HFKKTKKMGGKDFSFRYQQELEEI, the protein stability index was found to be 2.16.

On to HFKKTKKMGGKDFSFRYQQELEEQ, for which the protein stability index was 2.08.

As to HFKKTKKMGGKDFSFRYQQELEES, the protein stability index is 2.85.

HFKKTKKMGGKDFSFRYQQELEEW: the protein stability index turned out to be 1.9.

On to HFKKTKKMGGKDFSFRYQQELEED, for which the protein stability index amounted to 2.28.

Take HFKKTKKMGGKDFSFRYQQELEEK: the protein stability index is 3.43.

Regarding HFKKTKKMGGKDFSFRYQQELEEV, the protein stability index worked out at 3.28.

In another data set the parent is B2. The description is as above. Conditions: c terminus: a fixed tail appended.
As to TGETCFPKGRFERKRNPSRKKQHI, the protein stability index is 3.6.

For the variant KGETCFPKGRFERKRNPSRKKQHI, the protein stability index worked out at 3.75.

As to EGETCFPKGRFERKRNPSRKKQHI, the protein stability index was 4.46.

In the case of IGETCFPKGRFERKRNPSRKKQHI, the protein stability index amounted to 3.74.

LGETCFPKGRFERKRNPSRKKQHI: the protein stability index amounted to 3.9.

For FGETCFPKGRFERKRNPSRKKQHI, the protein stability index worked out at 1.9.

On to RGETCFPKGRFERKRNPSRKKQHI, for which the protein stability index was found to be 3.63.

For DGETCFPKGRFERKRNPSRKKQHI, the protein stability index stood at 4.25.

Regarding NGETCFPKGRFERKRNPSRKKQHI, the protein stability index amounted to 4.4.

VGETCFPKGRFERKRNPSRKKQHI: the protein stability index was determined as 4.09.

Turning to GGETCFPKGRFERKRNPSRKKQHI, the protein stability index amounted to 4.63.

Regarding CGETCFPKGRFERKRNPSRKKQHI, the protein stability index came out at 3.45.

As for QGETCFPKGRFERKRNPSRKKQHI, the protein stability index amounted to 3.96.

Turning to AGETCFPKGRFERKRNPSRKKQHI, the protein stability index was 4.36.

For MGETCFPKGRFERKRNPSRKKQHI, the protein stability index is 3.99.

Take HGETCFPKGRFERKRNPSRKKQHI: the protein stability index stood at 4.11.

Turning to PGETCFPKGRFERKRNPSRKKQHI, the protein stability index came to 4.1.

With WGETCFPKGRFERKRNPSRKKQHI, the protein stability index is 2.6.

Consider SGETCFPKGRFERKRNPSRKKQHI, for which the protein stability index is 4.4.

Take YGETCFQKGRFERKRNPSRKKQHI: the protein stability index was 2.26.

For YGETCFIKGRFERKRNPSRKKQHI, the protein stability index was 2.5.

In the case of YGETCFNKGRFERKRNPSRKKQHI, the protein stability index is 3.69.

With YGETCFDKGRFERKRNPSRKKQHI, the protein stability index worked out at 3.5.

In the case of YGETCFSKGRFERKRNPSRKKQHI, the protein stability index was found to be 2.28.

In the case of YGETCFCKGRFERKRNPSRKKQHI, the protein stability index is 2.81.

YGETCFGKGRFERKRNPSRKKQHI: the protein stability index was found to be 2.82.

With YGETCFMKGRFERKRNPSRKKQHI, the protein stability index came to 3.07.

For YGETCFKKGRFERKRNPSRKKQHI, the protein stability index stood at 3.35.

Consider YGETCFRKGRFERKRNPSRKKQHI, for which the protein stability index came to 2.93.

In the case of YGETCFEKGRFERKRNPSRKKQHI, the protein stability index stood at 3.63.

Turning to YGETCFHKGRFERKRNPSRKKQHI, the protein stability index turned out to be 2.43.

Consider YGETCFLKGRFERKRNPSRKKQHI, for which the protein stability index is 1.9.

In the case of YGETCFAKGRFERKRNPSRKKQHI, the protein stability index turned out to be 2.77.
